Substitutions are numbered along the chain they refer to.

Test [1] addresses T1, human PSMA on cells (Cho-hPSMA, CHO-K1 cells overexpressing full-length human PSMA) (human, UniProt Q04609 1-750).
T1 construct: whole, on cells; also called cell surface PSMA; PSMA-expressing Lncap cells
The experiment in a line: cell ELISA, Cho-hPSMA; antibody at 6.25 nM. As for the experimental part: (§1) Experiment 2: Cells were cultured and inoculated onto a cell plate using the same method as in Experiment 1. The antibodies were serially diluted, and the antibody solutions were added to the cell plate at 100 μL/well. The plate was incubated at 4° C. for 1 h and then washed. An HRP-Goat Anti-human IgG (H+L) secondary antibody dilution (1:8000) was added to the cell plate at 100 μL/well, and the plate was incubated at 4° C. for 1 h and then washed by centrifugation. After color development with TMB, the reaction was stopped with 0.1 M sulfuric acid, and OD450 values were measured.
(§2) Experiment 4: The binding activity of bispecific antibodies was measured using the method of experiment 2.
On the technique in general: An ELISA detects its analyte on a solid surface through an enzyme-linked reagent.

The target in test [2] is T1, human PSMA on cells (Cho-hPSMA, CHO-K1 …). Kind of test: cell ELISA, Cho-hPSMA; antibody at 25 nM. As for the experimental part: as §1, §2
The target is the same in test [3]. The experiment in a line: cell ELISA, Cho-hPSMA; antibody at 1.5625 nM. The method, then: as §1, §2
Test [4] shares this target. The experiment in a line: cell-based or functional assay.
Test [5] has the same target. The experiment in a line: flow cytometry, Cho-hPSMA; antibody at 100 nM. As for the experimental part:
(§3) Experiment 1: Cho-hPSMA was cultured in F12 medium with 10% FBS. The medium to which cells were inoculated was incubated in a 37° C., 5% CO₂ incubator for 2 days, and cells were added to a cell plate at 1×10⁵ cells/well and washed by centrifugation. Antibodies were serially diluted, and the antibody solutions were added to the cell plate at 100 μL/well. The plate was incubated at 4° C. for 1 h and then washed. An AF488-Goat Anti-human IgG Fc fluorescent secondary antibody dilution (1:400) was added to the cell plate at 100 μL/well, and the plate was incubated at 4° C. for 1 h and then washed. PBS was added to the cell plate at 100 μL/well before plate reading.
(§4) Experiment 3: The binding activity of bispecific antibodies was measured using the method of experiment 1.
For orientation: A flow cytometer gives signals particle by particle.

Test [6] has the same target. Kind of test: flow cytometry, Cho-hPSMA; antibody at 4 nM. The method, then:
as §3, §4

Test [7] shares this target. Kind of test: flow cytometry, Cho-hPSMA; antibody at 20 nM. The method, then:
as §3, §4

Test [8] has the same target. The experiment in a line: flow cytometry, Cho-hPSMA; antibody at 0.8 nM. The method, then: as §3, §4
Test [9] shares this target. Kind of test: flow cytometry, Cho-hPSMA; antibody at 0.8 µg/mL.
Test [10] shares this target. Kind of test: flow cytometry, Cho-hPSMA; antibody at 20 µg/mL.
Test [11] has the same target. Kind of test: flow cytometry, Cho-hPSMA; antibody at 4 µg/mL.
The target in test [12] is T2, human PSMA antigen (Acro, Cat. No. PSA-H52H3; Lys44-Ala750) (human, UniProt Q04609 44-750).
T2 construct: range 44-750
T2 sequence (Q04609 44-750 limits assumed): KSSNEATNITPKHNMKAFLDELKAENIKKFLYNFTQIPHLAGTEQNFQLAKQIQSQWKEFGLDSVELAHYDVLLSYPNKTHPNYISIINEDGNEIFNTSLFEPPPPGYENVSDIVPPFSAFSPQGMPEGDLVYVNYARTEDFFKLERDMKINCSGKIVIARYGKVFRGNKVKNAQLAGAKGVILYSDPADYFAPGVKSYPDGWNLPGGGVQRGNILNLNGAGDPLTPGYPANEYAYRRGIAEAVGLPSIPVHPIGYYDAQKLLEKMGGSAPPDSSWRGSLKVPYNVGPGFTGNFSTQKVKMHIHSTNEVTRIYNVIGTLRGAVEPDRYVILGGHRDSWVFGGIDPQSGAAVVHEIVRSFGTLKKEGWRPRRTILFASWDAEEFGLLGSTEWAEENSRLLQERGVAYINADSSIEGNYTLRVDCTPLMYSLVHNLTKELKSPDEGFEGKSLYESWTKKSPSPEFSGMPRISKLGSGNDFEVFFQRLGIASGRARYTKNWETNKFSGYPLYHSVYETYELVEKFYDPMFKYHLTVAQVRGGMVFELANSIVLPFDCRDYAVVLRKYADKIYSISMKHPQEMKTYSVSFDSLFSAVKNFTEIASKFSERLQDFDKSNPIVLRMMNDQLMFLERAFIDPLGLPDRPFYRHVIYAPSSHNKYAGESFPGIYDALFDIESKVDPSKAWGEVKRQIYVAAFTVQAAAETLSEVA
The experiment in a line: SPR (Biacore T200, 25 C), antibody captured on Protein A, 1:1 model. As for the experimental part: Experiment 5: Antibodies were affinity-captured using a Protein A biosensor chip, and human PSMA was then allowed to flow over the chip surface. The association and dissociation curves were obtained by real-time detection of reaction signals using a Biacore T200 instrument at 25° C. After the dissociation in each experimental cycle was complete, the biosensor chip was regenerated by washing with Glycine 1.5. Data fitting was performed using a 1:1 Model. The human PSMA antigen was purchased from Acro (Cat. No. PSA-H52H3; Lys44-Ala750), and the hCD3D&CD3E complex antigen was purchased from Sino Biological (Cat. No. CT038-H2508H).
(SPR reads the build-up and loss of mass on a sensor chip optically.)

For test [13], the target named is T1, human PSMA on cells (Cho-hPSMA, CHO-K1 …). The experiment in a line: flow cytometry, Cho-hPSMA; antibody at 100 µg/mL.

T1 sequence (Q04609 whole entry): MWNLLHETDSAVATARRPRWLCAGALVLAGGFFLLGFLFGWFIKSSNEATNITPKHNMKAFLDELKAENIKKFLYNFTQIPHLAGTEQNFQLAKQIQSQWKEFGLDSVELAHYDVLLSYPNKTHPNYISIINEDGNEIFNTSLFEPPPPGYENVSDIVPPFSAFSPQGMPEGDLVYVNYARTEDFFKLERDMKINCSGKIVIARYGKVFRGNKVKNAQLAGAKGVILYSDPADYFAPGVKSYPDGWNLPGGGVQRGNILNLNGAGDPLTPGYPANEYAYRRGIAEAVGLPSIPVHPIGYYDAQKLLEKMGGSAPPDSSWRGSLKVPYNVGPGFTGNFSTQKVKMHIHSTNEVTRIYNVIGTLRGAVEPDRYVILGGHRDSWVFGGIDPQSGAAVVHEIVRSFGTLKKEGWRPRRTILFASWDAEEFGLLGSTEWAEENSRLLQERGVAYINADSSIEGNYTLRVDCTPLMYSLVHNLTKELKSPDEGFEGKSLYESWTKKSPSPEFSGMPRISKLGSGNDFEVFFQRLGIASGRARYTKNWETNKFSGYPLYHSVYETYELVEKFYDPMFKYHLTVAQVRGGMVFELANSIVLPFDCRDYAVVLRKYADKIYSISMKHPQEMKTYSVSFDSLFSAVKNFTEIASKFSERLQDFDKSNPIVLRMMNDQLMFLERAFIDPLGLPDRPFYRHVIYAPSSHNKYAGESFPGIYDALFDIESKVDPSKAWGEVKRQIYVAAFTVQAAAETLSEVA

B1: 43-F4 (bispecific antibody)
heavy: not shown
light: DIQMTQSPSSLSASVGDRVTITCKASQNVHTSVAWYQQKPGKSPKLLIYSASNRYSGVPSRFSGSGSGTDFTLTISSLQPEDVATYYCQQYSSYPLTFGQGTKLEIKRTVAAPSVFIFPPSDEQLKSGTASVVCLLNNFYPREAKVQWKVDNALQSGNSQESVTEQDSKDSTYSLSSTLTLSKADYEKHKVYACEVTHQGLSSPVTKSFNRGEC
notes: PSMA x CD3, Format 4
Consider B1, for which the figures for the absorbance in test [1], in test [2] and in [3] were 0.527 OD450, 1.04 OD450 and 0.254 OD450, respectively. In addition, in test [4], the “cytotoxic activity against Lncap, EC50” value is 6.21 pM. Moreover, in [4], the “cytotoxic activity against Lncap, Maximum lysis rate %” value is 48%.

B2: 15-F2 (bispecific antibody)
heavy 1: not shown
light 1: B1 light with N28G, H30D, S32A, S50W, N53T, Y55H, S56T, S60D, S93R
heavy 2: not shown
light 2: not shown
notes: PSMA x CD3, Format 2
As to B2, the fluorescence intensity in test [5] amounted to 26900; in [6], 27800; in test [7], 30700; in [8], 15000.

B3: 15-F4 (bispecific antibody)
heavy: not shown
light: B1 light with N28G, H30D, S32A, S50W, N53T, Y55H, S56T, S60D, S93R
notes: PSMA x CD3, Format 4
Regarding B3, the fluorescence intensity in test [5] came out at 32200; in [6], 22000; in test [7], 31400; in test [8], 8280. In test [4], the “cytotoxic activity against Lncap, EC50” value turned out to be 9.63 pM. In addition, the “cytotoxic activity against Lncap, Maximum lysis rate %” value in test [4] came to 63.2%.

B4: 43-F3 (bispecific antibody)
heavy: not shown
light 1: B1 light
light 2: not shown
notes: PSMA x CD3, Format 3
B4: the absorbance in test [1] was determined as 0.441 OD450; in test [2], 0.721 OD450; in test [3], 0.227 OD450. Moreover, the “cytotoxic activity against Lncap, EC50” value in test [4] turned out to be 7.39 pM. Besides, the “cytotoxic activity against Lncap, Maximum lysis rate %” value in test [4] was found to be 49.5%.

B5: 27-F4 (bispecific antibody)
heavy: not shown
light: QIVLTQSPDFQSVTPKEKVTIQCSASSSVSYMYWYQQKPDQSPKPWIYRTSNLASGVPSRFSGSGSGTDYTLTINSLEAEDAATYYCQQYHSYPLTFGQGTKLEIKRTVAAPSVFIFPPSDEQLKSGTASVVCLLNNFYPREAKVQWKVDNALQSGNSQESVTEQDSKDSTYSLSSTLTLSKADYEKHKVYACEVTHQGLSSPVTKSFNRGEC
notes: PSMA x CD3, Format 4
Regarding B5, the absorbance came out at 0.732 OD450 in [1], 1.05 OD450 in test [2] and 0.419 OD450 in [3].

B6: 46-F4 (bispecific antibody)
heavy: not shown
light: DIQMTQSPSSLSASVGDRVTITCKASQSVGTAVAWYQQKPGKAPKLLIYSASSRYTGVPSRFSGSGSGTDFTLTISSLQPEDFADYFCHQYSSYPLTFGGGTKVEIKRTVAAPSVFIFPPSDEQLKSGTASVVCLLNNFYPREAKVQWKVDNALQSGNSQESVTEQDSKDSTYSLSSTLTLSKADYEKHKVYACEVTHQGLSSPVTKSFNRGEC
notes: PSMA x CD3, Format 4
As for B6, the fluorescence intensity came to 21300 in [5], 18700 in [6], 20800 in [7] and 9490 in [8]. Besides, the “cytotoxic activity against Lncap, EC50” value in [4] was 2.85 pM. Besides, the “cytotoxic activity against Lncap, Maximum lysis rate %” value in test [4] was found to be 63.5%.

B7: 46-F2 (bispecific antibody)
heavy 1: not shown
light 1: B6 light
heavy 2: not shown
light 2: not shown
notes: PSMA x CD3, Format 2
With B7, the fluorescence intensity in [5] was 23000; in test [6], 19400; in test [7], 23100; in test [8], 8330.

B8: 46-F1 (bispecific antibody)
heavy 1: not shown
light 1: B6 light
heavy 2: not shown
light 2: not shown
notes: PSMA x CD3, Format 1
As to B8, the fluorescence intensity in test [5] was 31600; in [6], 12300; in test [7], 28600; in [8], 3930.

B9: 31-F1 (bispecific antibody)
heavy 1: not shown
light 1: DIQMTQSPSSLSASVGDRVTITCRASGNIHNYLAWYQQKPGKAPKLLIYNAETLADGVPSRFSGSGSGTDFTLTISSLQPEDFATYYCQHFWSTPPTFGGGTKVEIKRTVAAPSVFIFPPSDEQLKSGTASVVCLLNNFYPREAKVQWKVDNALQSGNSQESVTEQDSKDSTYSLSSTLTLSKADYEKHKVYACEVTHQGLSSPVTKSFNRGEC
heavy 2: not shown
light 2: not shown
notes: PSMA x CD3, Format 1
As a reminder, the Kd is the equilibrium constant for the complex coming apart. As usually defined, the koff is the rate constant with which the complex falls apart. A higher koff goes with a short-lived complex. As a reminder, the kon is the rate constant with which the complex forms. A lower kon goes with slower complex formation. In the case of B9, the fluorescence intensity in test [9] turned out to be 2520; in test [10] it was 16200; in test [11], 7970; in test [13], 16500. The same molecule registered a Kd in test [12] of 1860 pM. Moreover, the koff in test [12] came to 1.84e-05 s⁻¹. The kon in [12] was 9890 M⁻¹ s⁻¹.

For the origin of these results see US20250043022A1 (JIANGSU HENGRUI PHARMACEUTICALS, published 2025).
